Experiment [1] deals with leptin receptor (Mus musculus) (UniProt P48356). In words: SPR. The settings on record: cited from earlier work.
Experiment [2] concerns the target T1, Recombinant human leptin receptor-Fc chimera (human, UniProt P48357 22-839).
T1 sequence (looked up): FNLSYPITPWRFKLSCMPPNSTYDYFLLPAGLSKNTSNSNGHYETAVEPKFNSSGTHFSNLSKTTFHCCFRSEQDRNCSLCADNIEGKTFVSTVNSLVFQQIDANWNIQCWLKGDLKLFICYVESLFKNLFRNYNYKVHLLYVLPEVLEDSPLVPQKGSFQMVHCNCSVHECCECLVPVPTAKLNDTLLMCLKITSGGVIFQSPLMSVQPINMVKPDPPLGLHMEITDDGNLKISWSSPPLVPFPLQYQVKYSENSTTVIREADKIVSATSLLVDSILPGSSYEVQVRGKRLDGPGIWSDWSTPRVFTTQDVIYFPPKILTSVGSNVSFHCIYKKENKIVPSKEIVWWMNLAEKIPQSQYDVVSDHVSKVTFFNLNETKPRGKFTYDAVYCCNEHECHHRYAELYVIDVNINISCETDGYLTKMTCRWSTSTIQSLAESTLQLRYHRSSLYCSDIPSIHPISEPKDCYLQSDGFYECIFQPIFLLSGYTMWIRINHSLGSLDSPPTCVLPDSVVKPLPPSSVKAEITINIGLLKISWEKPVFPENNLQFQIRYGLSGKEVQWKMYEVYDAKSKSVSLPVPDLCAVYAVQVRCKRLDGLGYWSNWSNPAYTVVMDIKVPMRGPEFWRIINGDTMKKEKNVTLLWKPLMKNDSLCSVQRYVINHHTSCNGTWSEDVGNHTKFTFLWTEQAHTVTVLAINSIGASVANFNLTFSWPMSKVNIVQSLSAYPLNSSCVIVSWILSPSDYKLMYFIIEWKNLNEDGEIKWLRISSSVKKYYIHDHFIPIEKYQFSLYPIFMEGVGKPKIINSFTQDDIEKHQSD
In words: SPR. For orientation: Surface plasmon resonance follows binding to a sensor surface in real time, without labels.

Chain of leptin receptor (Mus musculus) (P48356 22-839): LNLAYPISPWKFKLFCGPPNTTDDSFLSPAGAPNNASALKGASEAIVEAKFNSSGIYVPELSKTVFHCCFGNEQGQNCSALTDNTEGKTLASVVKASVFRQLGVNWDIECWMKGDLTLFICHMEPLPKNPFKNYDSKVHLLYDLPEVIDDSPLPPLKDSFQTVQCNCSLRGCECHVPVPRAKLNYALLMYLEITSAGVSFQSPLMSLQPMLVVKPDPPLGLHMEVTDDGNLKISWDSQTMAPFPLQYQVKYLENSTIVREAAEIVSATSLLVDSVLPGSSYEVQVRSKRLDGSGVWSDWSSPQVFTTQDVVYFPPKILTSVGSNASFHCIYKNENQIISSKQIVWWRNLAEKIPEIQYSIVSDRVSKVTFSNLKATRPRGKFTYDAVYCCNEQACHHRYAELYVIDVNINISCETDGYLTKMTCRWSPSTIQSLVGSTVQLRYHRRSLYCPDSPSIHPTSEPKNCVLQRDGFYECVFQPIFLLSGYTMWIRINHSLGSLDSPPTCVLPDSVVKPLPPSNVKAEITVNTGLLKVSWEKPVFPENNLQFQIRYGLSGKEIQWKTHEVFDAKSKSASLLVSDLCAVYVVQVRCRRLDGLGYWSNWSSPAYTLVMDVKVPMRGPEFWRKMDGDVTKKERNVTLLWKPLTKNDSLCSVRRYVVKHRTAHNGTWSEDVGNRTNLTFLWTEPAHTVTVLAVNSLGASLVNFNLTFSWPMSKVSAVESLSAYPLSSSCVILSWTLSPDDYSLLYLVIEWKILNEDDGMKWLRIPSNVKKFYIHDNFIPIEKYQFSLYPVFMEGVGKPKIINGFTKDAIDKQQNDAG

Turning to leptin (from UniProt P41160), in experiment [1], the Kd – broadly, a measure of binding affinity in units of concentration – was 0.12 nM.

B1: Recombinant mouse leptin (ligand, UniProt P41160 22-167, looked up)
chain: VPIQKVQDDTKTLIKTIVTRINDISHTQSVSAKQRVTGLDFIPGLHPILSLSKMDQTLAVYQQVLTSLPSQNVLQIANDLENLRDLLHLLAFSKSCSLPQTSGLQKPESLDGVLEASLYSTEVVALSRLQGSLQDILQQLDVSPEC
For B1, the Kd in experiment [2] amounted to 0.089 nM.

B2: Leptin N-terminal conjugate with poly(ethylene glycol) (LepNPEG5K), 1:1 conjugate (ligand, mouse, UniProt P41160 22-167, looked up)
chain: VPIQKVQDDTKTLIKTIVTRINDISHTQSVSAKQRVTGLDFIPGLHPILSLSKMDQTLAVYQQVLTSLPSQNVLQIANDLENLRDLLHLLAFSKSCSLPQTSGLQKPESLDGVLEASLYSTEVVALSRLQGSLQDILQQLDVSPEC
modifications: one chain of PEG (average molecular mass 5000 Da) on the N-terminal amine (reductive amination)
Regarding B2, in experiment [2], the Kd came out at 0.28 nM.

B3: Leptin N-terminal conjugate with Pluronic P85 (LepNP85), 1:1 conjugate (ligand, mouse, UniProt P41160 22-167, looked up)
chain: VPIQKVQDDTKTLIKTIVTRINDISHTQSVSAKQRVTGLDFIPGLHPILSLSKMDQTLAVYQQVLTSLPSQNVLQIANDLENLRDLLHLLAFSKSCSLPQTSGLQKPESLDGVLEASLYSTEVVALSRLQGSLQDILQQLDVSPEC
modifications: one chain of Pluronic P85 on the N-terminal amine (reductive amination, secondary amine)
In the case of B3, the Kd in experiment [2] came out at 0.2 nM.
